From US20030199423A1 come the findings set out here.

For assay [1], the target named is LFA-1 (CD18/CD11a) (human) (UniProt P20701). Put plainly: inhibition of SKW3 cell adhesion to coated soluble ICAM-R, peptide 1-2 mg/ml.
Assay [2] has the same target. Put plainly: inhibition of CD18-dependent adhesion of PMA-treated JY cells to coated shICAM-R, antibody 10 µg/ml; defines total CD18-dependent binding.
Assay [3] shares this target. In words: inhibition of neutrophil adhesion to coated ICAM-R/Ig, antibody 15 µg/ml.

Sequence of LFA-1 (CD18/CD11a) (human) (P20701 26-1170, chain 1 of 2): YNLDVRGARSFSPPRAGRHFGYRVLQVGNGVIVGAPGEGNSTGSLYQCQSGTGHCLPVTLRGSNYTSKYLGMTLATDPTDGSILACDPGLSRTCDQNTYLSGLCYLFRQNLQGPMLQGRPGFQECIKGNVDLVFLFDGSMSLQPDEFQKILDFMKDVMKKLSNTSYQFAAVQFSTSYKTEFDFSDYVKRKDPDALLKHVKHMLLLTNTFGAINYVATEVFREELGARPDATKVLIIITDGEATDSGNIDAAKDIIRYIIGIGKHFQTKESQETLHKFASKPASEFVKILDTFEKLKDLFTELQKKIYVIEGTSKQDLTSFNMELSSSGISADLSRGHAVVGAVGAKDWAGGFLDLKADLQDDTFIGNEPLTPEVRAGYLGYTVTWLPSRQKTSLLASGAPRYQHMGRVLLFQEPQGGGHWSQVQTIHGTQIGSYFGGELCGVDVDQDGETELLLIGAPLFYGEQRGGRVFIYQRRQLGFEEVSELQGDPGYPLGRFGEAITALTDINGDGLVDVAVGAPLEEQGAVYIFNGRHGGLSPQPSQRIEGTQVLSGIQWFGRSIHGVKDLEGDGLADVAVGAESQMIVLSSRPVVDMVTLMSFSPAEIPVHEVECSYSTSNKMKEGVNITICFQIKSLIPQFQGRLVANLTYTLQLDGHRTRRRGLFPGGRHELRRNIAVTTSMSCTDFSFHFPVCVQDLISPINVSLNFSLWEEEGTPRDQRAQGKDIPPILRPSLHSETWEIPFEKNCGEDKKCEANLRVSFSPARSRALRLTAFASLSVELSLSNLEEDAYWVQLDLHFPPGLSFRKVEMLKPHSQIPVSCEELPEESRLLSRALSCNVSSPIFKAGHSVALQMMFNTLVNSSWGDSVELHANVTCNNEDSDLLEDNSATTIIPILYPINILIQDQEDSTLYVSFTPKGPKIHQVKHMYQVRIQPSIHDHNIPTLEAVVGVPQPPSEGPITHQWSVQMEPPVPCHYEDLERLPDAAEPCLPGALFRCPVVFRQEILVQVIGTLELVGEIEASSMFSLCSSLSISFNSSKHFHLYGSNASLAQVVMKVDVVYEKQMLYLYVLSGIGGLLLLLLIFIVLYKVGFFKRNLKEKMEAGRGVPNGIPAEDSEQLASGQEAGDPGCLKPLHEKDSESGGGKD
Sequence of LFA-1 (CD18/CD11a) (human) (P05107 23-769, chain 2 of 2, further chain): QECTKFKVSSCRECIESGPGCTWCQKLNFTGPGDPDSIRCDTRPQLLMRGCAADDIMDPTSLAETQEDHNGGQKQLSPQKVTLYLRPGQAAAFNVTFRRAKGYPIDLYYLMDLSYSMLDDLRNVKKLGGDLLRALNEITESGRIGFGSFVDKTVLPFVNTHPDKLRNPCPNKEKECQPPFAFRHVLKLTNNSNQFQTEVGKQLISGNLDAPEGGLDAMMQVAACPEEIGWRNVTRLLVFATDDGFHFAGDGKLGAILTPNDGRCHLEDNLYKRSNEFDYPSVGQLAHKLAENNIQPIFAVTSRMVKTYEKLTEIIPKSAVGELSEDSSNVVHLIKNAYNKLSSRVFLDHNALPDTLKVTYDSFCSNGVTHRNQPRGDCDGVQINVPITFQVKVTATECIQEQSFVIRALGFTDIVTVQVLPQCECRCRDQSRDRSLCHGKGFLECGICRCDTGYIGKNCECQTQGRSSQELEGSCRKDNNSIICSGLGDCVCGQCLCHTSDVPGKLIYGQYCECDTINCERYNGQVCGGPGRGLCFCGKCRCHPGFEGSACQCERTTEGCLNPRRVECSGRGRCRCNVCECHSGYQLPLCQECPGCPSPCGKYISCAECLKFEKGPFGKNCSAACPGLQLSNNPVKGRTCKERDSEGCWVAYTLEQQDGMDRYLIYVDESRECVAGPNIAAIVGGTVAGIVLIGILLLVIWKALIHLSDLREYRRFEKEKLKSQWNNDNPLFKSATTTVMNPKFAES

“ICAM-R domain 1 peptide (NGSQI), residues 72-76”: the % Inhibition in assay [1] is 26%. The substance anti-CD18 monoclonal antibody 60.3 registered an Inhibition (%) in assay [2] of 100%. Substance anti-CD11a monoclonal antibody TS1/22 had a percent inhibition of neutrophil binding to ICAM-R in assay [3] of 50%.

One may read the % Inhibition as the relative decrease from the control value, in per cent.
